Rate of subunit exchange, equilibrium constant for hexamer formation from dimers (Kd 2-4 x Kd 4-6) and stoichiometry N data for 1 substance are collected here from doi:10.1101/191742.

Holding throughout (assay): single-molecule diffusometry in an ABEL trap
For assay [1], the target named is Nicotiana tabacum Rubisco activase S379C (Nt-Rca-S379C) (Nicotiana tabacum).
Assay [2] shares this target. This is another data set of the same source.
Assay [3] shares this target. This is another data set of the same source.
The target is the same in assay [4]. The source holds these as a separate data set.
Assay [5] shares this target. The source holds these as a separate data set.

“And” between values parts separate entries of the source, which are not always exact repeats. Identical values can stand only once. Like-named read-outs stand apart in the source and are kept apart here.

By stoichiometry N is commonly meant a count of units in the complex or per binding partner. As to “Nicotiana tabacum Rubisco activase S379C (Nt-Rca-S379C) (enzyme)”, the rate of subunit exchange in assay [1] is over 0.2 s⁻¹; in assay [2], 0.1 s⁻¹. This substance also came in with an equilibrium constant for hexamer formation from dimers (Kd 2-4 x Kd 4-6) in assay [2] of 0.2 μM^2. For the same substance, the stoichiometry N in assay [2] was 2; in assay [3], 4 and 6 and > 6; in assay [4] it was 2; in assay [5], 4 and 6.
